From PMC3713452 (2013) come the findings set out here.

For the test, the target named is T1, GST-Pdcd4 (GST fusion to full length Drosophila Pdcd4) (Drosophila, UniProt Q9VY91).
T1 chain: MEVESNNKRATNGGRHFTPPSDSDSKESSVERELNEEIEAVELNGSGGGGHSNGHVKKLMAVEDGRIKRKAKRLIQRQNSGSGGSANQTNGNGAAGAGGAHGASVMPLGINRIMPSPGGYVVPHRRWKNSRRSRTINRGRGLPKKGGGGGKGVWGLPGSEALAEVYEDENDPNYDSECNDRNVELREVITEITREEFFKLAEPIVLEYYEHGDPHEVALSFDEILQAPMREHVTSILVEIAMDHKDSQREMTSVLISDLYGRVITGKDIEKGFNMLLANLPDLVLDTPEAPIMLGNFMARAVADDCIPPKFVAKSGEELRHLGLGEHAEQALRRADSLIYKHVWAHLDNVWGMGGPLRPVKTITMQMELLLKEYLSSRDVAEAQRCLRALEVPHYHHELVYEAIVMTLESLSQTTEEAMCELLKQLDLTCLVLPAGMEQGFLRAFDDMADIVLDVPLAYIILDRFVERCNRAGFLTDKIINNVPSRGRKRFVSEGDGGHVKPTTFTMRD
Description: GST pull-down (affinity chromatography, immunoblot). Background: Immunoblotting shows a protein as a band on a membrane.

B1: recombinant Drosophila eIF4A (6His eIF4A) (protein)
chain: MDDRNEIPQDGPASMEPEGVIESTWHEVYDNFDDMNLREELLRGIYGYGFEKPSAIQQRAIIPCVRGRDVIAQAQSGTGKTATFSIAILQQIDTSIRECQALILAPTRELATQIQRVVMALGEYMKVHSHACIGGTNVREDARILESGCHVVVGTPGRVYDMINRKVLRTQYIKLFVLDEADEMLSRGFKDQIQDVFKMLPPDVQVILLSATMPPDVLEVSRCFMRDPVSILVKKEELTLEGIKQFYVNVKQENWKLGTLCDLYDTLSITQSVIFCNTRRKVDQLTQEMSIHNFTVSAMHGDMEQRDREVIMKQFRSGSSRVLITTDLLARGIDVQQVSLVINYDLPSNRENYIHRIGRGGRFGRKGVAINFITDDDRRILKDIEQFYHTTIEEMPANIADLI
For B1, the binding result is reported as “binds”.
